Changes are numbered by the printed parent chain.
B1: IgG1-1016-058 (antibody, V domains shown)
VH: EVQLVESGGGLVKPGGSLKLSCAASGFTFSDYYMYWVRQTPEKRLEWVATISDDGSYTYYPDSVKGRFTISRDNAKNNLYLQMSSLKSEDTAMYYCAREGLYYYGSGSYYNQDYWGQGTLVTVSS
VL: AIQLTQSPSSLSASVGDRVTITCRASQGLSSALAWYRQKPGKAPKLLIYDASSLESGVPSRFSGSGSGTDFTLTISSLQPEDFATYYCQQFTSYPQITFGQGTRLEIK
notes: also called IgG1-058; TH1016-058
B2: IgG1-024 (antibody, V domains shown)
VH: EVQLLESGGGLVQPGGSLRLSCVASGFTFSSYAMSWVRQAPGKGLEWVSAISGSSGGSTYYVDSVKGRFTISRANSKNTLYLQMNSLRAEDTAVYYCAKDLDRGWMGYFGYWGQGTLVTVSS
VL: DIQMTQSPSSVSASVGDRVTITCRASQGISSWLAWYQHKPGKAPKLLIYAASSLQSGVPSRFSGSGSGTDFTLTISSLQPEDFATYYCQQANSFPTFGQGTRLEIK
notes: also called TH1016-024; PC1016-024
B3: anti-c-Met HuMab 045 (IgG1) (antibody, V domains shown)
VH: EVQLLESGGGLVQPGGSLRLSCAASGFTFSSYAMSWVRQAPGKGLEWVSVISGSGGITYYADSVKGRFTISRDNSKNTLYLQMNSLRAEDTAVYYCARDRGWGSDYWGQGTLVTVSS
VL: EIVLTQSPATLSLSPGERATLSCRASQSVSSYLAWYQQKPGQAPRLLIYDASNRATGIPARFSGSGSGTDFTLTISSLEPEDFAVYYCQQRSNWPFTFGPGTKVDIK
notes: also called TH1016-045; PC1016-045
B4: anti-c-Met HuMab 008 (IgG1) (antibody, V domains shown)
VH: EVQLVQSGAEVKKPGESLKISCKGSGYSFTSYWIGWVRQMPGKGLEWMGIIYPGDSETRYSPSFQGQVTISADKSISTAYLQWSSLKASDTAMYYCARQEITGEFDYWGQGTLVTVSS
VL: AIQLTQSPSSLSASVGDRVTITCRASQGISSALAWYQQKPGKAPKLLIYDASSLESGVPSRFSGSGSGTDFTLTISSLQPEDFATYYCQQFNSYPRTFGQGTKVEIK
notes: also called TH1016-008; PC1016-008
B5: anti-c-Met HuMab 035 (IgG1) (antibody, V domains shown)
VH: B4 VH with E57D, S84N
VL: B1 VL with L29I, R37Q, T92N, Q96M, I97Y, R104K
notes: also called P1016-035; TH1016-035-D09
B6: anti-c-Met HuMab 101 (IgG1) (antibody, V domains shown)
VH: QVQLVQSGGEVKKPGASVKVSCKASGYTFTRHGITWVRQAPGQGLEWMGWISADNGNTNYAQKFQDRVTMTTDTSTSTAYMELRSLRSDDTAVYFCARVFRYFDWLLPYFDYWGQGTLVTVST
VL: not shown
B7: anti-c-Met HuMab 005 (IgG1) (antibody, V domains shown)
VH: QVQLVQSGAEVKKPGSSVKVSCKASGGTFSSYGFGWVRQAPGQGLEWMGRISPILGIANYAQMFQGRVTITADKSTSTAYMELSSLRSEDTAVYYCARDVGYDWPDTFDIWGQGTMVIVSS
VL: DIQMTQSPSSLSASVGDRVTITCRASQGISSWLAWYQQKPEKAPKSLIYAASSLQSGVPSRFSGGGSGTDFTLTISSLQPEDFATYYCQQYNSFPPTFGQGTKVEIK
notes: also called TH1016-005; PC1016-005
B8: anti-c-Met HuMab 098 (IgG1) (antibody, V domains shown)
VH: QVQLVQSGAEVKKPGASVKVSCKASGYTFTNFGISWVRQAPGQGLEWMGWISAFNGHTDYSQKVQGRVTMTTDTSTSTAYMELRSLRSDDTAVFYCARSHYYGSGSPFDYWGQGTLVTVSS
VL: B7 VL with S31N, G65S, Q89H, N92K, F94Y, P96W
notes: also called TH1016-098; PC1016-098
B9: anti-c-Met HuMab 006 (IgG1) (antibody, V domains shown)
VH: B7 VH with Y32F, F34I, S52F, I57T, S84T, W104S, P105A, T107A, I118T
VL: B7 VL with G65S, F94Y
notes: also called TH1016-006; PC1016-006
B10: IgG1-1016-069 (antibody, V domains shown)
VH: QVQLVQSGAEVKKPGASVKVSCETSGYTFTSYGISWVRQAPGHGLEWMGWISAYNGYTNYAQKLQGRVTMTTDTSTSTAYMELRSLRSDDTAVYYCARDLRGTNYFDYWGQGTLVTVSS
VL: DIQMTQSPSSVSASVGDRVTITCRASQGISNWLAWFQHKPGKAPKLLIYAASSLLSGVPSRFSGSGSGTDFTLTISSLQPEDFATYYCQQANSFPITFGQGTRLEIK
notes: also called clone 069; TH1016-069
B11: anti-c-Met HuMab 181 (IgG1) (antibody, V domains shown)
VH: B10 VH with E23K, T24A, H43Q, A53T, N104A
VL: B10 VL with F36Y
notes: also called TH1016-181; PC1016-181

Experiments:
[1] = molecular target: T1, recombinant human c-Met extracellular domain (R&D systems) (human, UniProt P08581 25-932); test: competition ELISA, residual Europium-HGF signal at 615 nm at the lower plateau of the fit; sheet prints no competing mAb ~66000, no HGF-Europium ~600; upper panel
T1 construct: extracellular domain; Bought reagent; also called coated extracellular domain of c-Met; recombinant c-Met
Protocol: (§1) ELISA wells were coated overnight at 4° C. with 0.5 μg/mL recombinant human c-Met extracellular domain (R&D systems, Minneapolis, USA) diluted in PBS. Next, the ELISA wells were washed with PBST (PBS supplemented with 0.05% Tween-20 [Sigma-Aldrich, Zwijndrecht, The Netherlands]) and blocked for one hour at room temperature (RT) with PBST supplemented with 2% (v/v) chicken serum (Gibco, Paisley, Scotland). […] Mean fluorescence intensity at 615 nm was measured using the EnVision 2101 Multilabel reader (PerkinElmer) applying the following settings: Lance/Delfia dual mirror, emission filter 615, excitation filter 340 nm, delay time 400 μs, window 400 μs, 100 flashes, 2000 μs per cycle and bidirectional row-by-row reading. To determine IC₅₀ values, the binding curves were analyzed with non-linear regression (sigmoidal dose-response with variable slope, top-values constrained to a shared value for all data-sets) using GraphPad Prism V4.03 software (GraphPad Software, San Diego, Calif., USA).
(§2) FIG. 5 depicts representative examples of HGF binding inhibition curves of anti-c-Met antibodies for binding to the extracellular domain of recombinant human c-Met. 5D5 was used as positive control antibody. All anti-c-Met antibodies in the experiment shown were able to compete with Europium^{3±}-conjugated HGF for binding to recombinant c-Met. […] Without adding Europium³⁺-conjugated HGF, roughly ˜600 relative fluorescent units (RFU) were detected, indicating the signal when maximal inhibition is accomplished. When binding of Europium³⁺-conjugated HGF was not inhibited, approximately ˜66,000 RFU were detected.

[2] = molecular target: T2, cMetECDHis (human, UniProt P08581 25-932, limits assumed, biotinylated in the cross-block ELISA of Example 17); test: cross-block ELISA; competitor 022
T2 construct: Expressed in HEK-293F cells; also called soluble cMetECDHis; biotinylated cMetECDHis
Protocol: First, the optimal coating concentrations of the tested anti-c-Met antibodies and the optimal cMetECDHis concentration were determined. Therefore, ELISA wells were coated overnight at 4° C. with anti-c-Met HuMabs serially diluted in PBS (8 μg/mL in 2-fold dilutions). Next, the ELISA wells were washed with PBST (PBS supplemented with 0.05% Tween-20 [Sigma-Aldrich, Zwijndrecht, The Netherlands]) and blocked for one hour at room temperature (RT) with PBSTC (PBST supplemented 2% [v/v] chicken serum [Gibco, Paisley, Scotland]). Subsequently, the ELISA wells were washed with PBST and incubated for one hour at RT with biotinylated cMetECDHis serially diluted in PBSTC (1 μg/mL in 2-fold dilutions). Unbound biotinylated cMetECDHis was washed away with PBST, and bound biotinylated cMetECDHis was incubated for one hour at RT with 0.1 μg/mL Streptavidin-poly-HRP (Sanquin, Amsterdam, The Netherlands) diluted in PBST.
ELISA wells were coated with anti-c-Met antibody at a sub-optimal dose as described above. After blocking of the ELISA wells, they were incubated with the predetermined concentration of biotinylated cMetECDHis in the presence of an excess of anti-c-Met antibody. The reaction was developed as described above. Residual binding was expressed as a percentage relative to the binding observed in the absence of competitor antibody.

[3] = molecular target: T1, recombinant human c-Met extracellular …; test: competition ELISA on coated recombinant c-Met extracellular domain; blocked ligand Europium-conjugated HGF; column headed EC50 on the sheet, called IC50 in paragraph 270; upper panel
Protocol: as §1, §2

[4] = molecular target: T3, cMetSEMA-567His8 (human, UniProt P08581 25-567, limits assumed); test: TR-FRET; displacement of AlexaFluor-647-HGF from cMetSEMA-567His8
T3 construct: In the TR-FRET assay detected by anti-6xhis Europium3+; also called cMetSEMAHis; SEMA domain of c-Met; not shown: C-terminal His tag; the text says His9, the construct name says His8
Protocol: Therefore, the interaction of anti-c-Met antibodies with the SEMA domain of the c-Met receptor was studied using TR-FRET technology. […] The mean fluorescent intensity at 665 nm was measured on the EnVision 2101 Multilabel reader (PerkinElmer).
A 4-fold serial dilution of unlabeled anti-c-Met antibody ranging from 0.49-8000 ng/mL was tested. After overnight incubation at 4° C. in the dark, mean fluorescence intensity at 665 nm was measured using the EnVision 2101 Multilabel reader applying the following settings: Lance/Delfia dual mirror, emission filter 615-665 nm, excitation filter 320 nm, delay time 60 μs, window 100 μs, 100 flashes, 2000 μs per cycle and bidirectional row-by-row reading. To determine IC₅₀ values, the binding curves were analyzed with non-linear regression (sigmoidal dose-response with variable slope) using GraphPad Prism V4.03 software (GraphPad Software, San Diego, Calif., USA).

[5] = molecular target: T4, human c-Met, membrane-bound on cells (human, UniProt P08581 25-1390); test: flow cytometry on A431 cells (PE goat anti-human IgG); second panel
T4 construct: whole, on cells; A431 cells carry on average 30,000 copies of c-Met per cell (Qifi); also called c-Met expressed on A431 cells; c-Met on A549 cells
Protocol: The binding of anti-c-Met antibodies and monovalent forms thereof (also termed “UniBody molecules” herein, see Example 5) to A431 cells expressing membrane-bound c-Met (purchased at ATCC, CRL-1555) was tested using flow cytometry (FACS Canto II, BD Biosciences). […] Binding of anti-c-Met antibodies and UniBody molecules was detected using a Phycoerythrin-conjugated goat-anti-human IgG antibody (Jackson). IgG1-5D5 was used as positive control antibody, and HuMab-KLH was used as isotype control antibody. EC₅₀ values were determined by means of non-linear regression (sigmoidal dose-response with variable slope) using GraphPad Prism V4.03 software (GraphPad Software, San Diego, Calif., USA).
Also maximum binding levels were unchanged between IgG1's and UniBody molecules. For antibodies 005, 006, 008, 035, 045 and 058, on the other hand, a more than 2-fold […] as well as a decrease in maximum binding level was observed when comparing IgG1 with their UniBody counterpart. This was most likely due to the […] (Kd) of these antibodies (see Example 14).

Binder	Bottom [1]	residual binding, % of no competitor [2]	IC50 [3]	% inhibition [4]	IC50 [4]	EC50 [5]
B1	5200 RFU	6.8%	0.00727 µg/mL	99%	0.15 µg/mL	
B2	13100 RFU	100%	0.0168 µg/mL	95%	0.39 µg/mL	
B3	12600 RFU	105%	0.0165 µg/mL	92%	0.17 µg/mL	
B4	30100 RFU	82.1%	0.00788 µg/mL			0.554 nM
B5	23300 RFU	54.6%	0.0348 µg/mL			
B6		90.7%		96%	0.53 µg/mL	
B7	6940 RFU	4.9%	0.0362 µg/mL	92%	0.16 µg/mL	1.56 nM
B8		95.8%		98%	0.55 µg/mL	
B9	5630 RFU	4.6%	0.0799 µg/mL	92%	0.16 µg/mL	1.92 nM
B10		97.8%		97%	0.54 µg/mL	
B11		92.5%		93%	0.34 µg/mL	

— patent publication US20150329642A1 (Genmab, published 2015)
